Molecular target: T1, aIF2-γ subunit of translation initiation factor aIF2, recombinant, His-tagged (Sulfolobus solfataricus, UniProt Q980A5 1-415)
T1 construct: translation initiation factor 2 subunit gamma (aIF2-γ), Sulfolobus solfataricus
T1 sequence (looked up): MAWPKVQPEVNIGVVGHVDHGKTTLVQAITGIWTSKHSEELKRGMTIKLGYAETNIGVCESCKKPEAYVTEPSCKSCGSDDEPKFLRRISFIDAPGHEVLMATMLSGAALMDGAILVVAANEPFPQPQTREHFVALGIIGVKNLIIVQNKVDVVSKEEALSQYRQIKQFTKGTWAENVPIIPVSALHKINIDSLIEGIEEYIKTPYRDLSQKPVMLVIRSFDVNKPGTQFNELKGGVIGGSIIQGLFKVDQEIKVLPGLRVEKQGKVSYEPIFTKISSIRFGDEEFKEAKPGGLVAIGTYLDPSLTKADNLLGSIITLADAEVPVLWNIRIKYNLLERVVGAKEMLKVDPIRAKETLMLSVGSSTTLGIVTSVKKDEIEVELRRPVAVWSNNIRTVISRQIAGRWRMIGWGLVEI
Experiment: native gel or EMSA; acidic native polyacrylamide gel electrophoresis of the individual aIF2 subunits and the trimeric complex (Supplementary Figure S3, lanes 1-4)
Details: both partners purified

B1: aIF2-α subunit of translation initiation factor aIF2, recombinant, His-tagged (natural protein, Sulfolobus solfataricus, UniProt Q97Z79 1-266, looked up)
chain: MIYSRSKLPSEGEILIATVKQVFDYGSYVSLDEYGGLQAFLPWSEVSSKWVKNIRDVLKENRKVIVKVIRVDRRKGTVDVSLKKVTDDERRKKNLQWKKIQRLDKILELVSQKLKLSEKDAWEQVAWKLEAKYGDPITAIEKAVKEGEKILIDAGVPEIWVKPLLEEASKHAEERKVKMSGLITVRTNEPLGVEKIKEVISKALENIEQDYESLLNIKIYTIGAPRYRVDVVGTNPKEASEALNQIISNLIKIGKEENVDISVVKK
notes: translation initiation factor 2 subunit alpha (aIF2-α), Sulfolobus solfataricus
binding result: binds

B2: aIF2-β subunit of translation initiation factor aIF2, recombinant, His-tagged (natural protein, Sulfolobus solfataricus, UniProt Q97W59 1-139, looked up)
chain: MSSEKEYVEMLDRLYSKLPEKGRKEGTQSLPNMIILNIGNTTIIRNFAEYCDRIRREDKICMKYLLKELAAPGNVDDKGELVIQGKFSSQVINTLMERFLKAYVECSTCKSLDTILKKEKKSWYIVCLACGAQTPVKPL
notes: translation initiation factor 2 subunit beta (aIF2-β), Sulfolobus solfataricus; also called aIF2-ß
binding result: binds

— article PMC3936769, “Back to translation: removal of aIF2 from the 5′-end of mRNAs by translation recovery factor in the crenarchaeon Sulfolobus solfataricus” (Nucleic Acids Research, 2013)
